Measured values: the supplement of paper PMC7877785
± gives the uncertainty stated by the source.

Assay: self-splicing fitness, log relative to wild type (ln ratio); higher = more splicing; Tetrahymena group I intron in knt gene, E. coli kanamycin selection, DiMSum; sequences stand for … in CUCUCU…GGAGGGAAAAGUUAUCAGGCAUGCACCUGGUAGCUAGUCUUUAAACCAAUAGAUUGCAUCGGUUUAAAAGGCAAGACCGUCAAAUUGCGGGAAAGGGGUCAACAGCCGUUCAGUACCAAGUCUCAGGGGAAACUUUGAGAUGGCCUUGCAAAGGGUAUGGUAAUAAGCUGACGGACAUGGUCCUAACCACGCAGCCAAGUCCUAAGUCAACAGAUCUUCUGUUGAUAUGGAUGCAGUUCACAGACUAAAUGUCGGUCGGGGAAGAUGUAUUCUUCUCAUAAGAUAUAGUCGGACCUCUCCUUAAUGGGAGCUAGCGGAUGAAGUGAUGCAACACUGGAGCCGCUGGGAACUAAUUUGUAUGCGAAAGUAUAUUGAUUAGUUUUGGAGUACUCGUGGUCG
How it was run: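 Pooled colonies went to amplicon sequencing on an Illumina HiSeq 2500 after six replicate transformations. The plates were LB agar with 100 μg/mL carbenicillin, 50 μM IPTG and 0.2% rhamnose, with or without 25 μg/mL kanamycin, incubated overnight at 37°C or 30°C. The E. coli BL21(DE3) library had all eight P1ex-region intron nucleotides randomised, the intron placed in the knt kanamycin-resistance gene on pET-22b(+). DiMSum fitness is the error-weighted combination of replicate fold changes, kanamycin against none, normalised to wild type.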

| Sequence | self-splicing fitness (ln) (30 °C) | self-splicing fitness (ln) (37 °C) |
| --- | --- | --- |
| UAACAGCAAUAUUACGGAUC | -3.92 ± 0.22 | -2.17 ± 0.15 |
| UGGUAGCAAUAUUACGAUAG | -1.94 ± 0.2 | -0.14 ± 0.14 |
| AUUAAGCAAUAUUACGCCGG | -0.824 ± 0.19 | -0.226 ± 0.25 |
| ACGUAGCAAUAUUACGGUAA | -1.67 ± 0.2 | -1.39 ± 0.14 |
| AUGAAGCAAUAUUACGAUUU | 0.114 ± 0.062 | 0.345 ± 0.071 |
| UUUCAGCAAUAUUACGCAUU | -1.93 ± 0.14 | -1.08 ± 0.11 |
| GGUCAGCAAUAUUACGUACA | -0.423 ± 0.087 | 0.547 ± 0.14 |
| CCGCAGCAAUAUUACGCACA | -2.51 ± 0.19 | -1.48 ± 0.17 |
| CUCAAGCAAUAUUACGGAUG | -1.48 ± 0.088 | -1.05 ± 0.13 |
| AUUGAGCAAUAUUACGGAGA | – | -1.85 ± 0.47 |
| GUCCAGCAAUAUUACGAGUG | -2.52 ± 0.11 | -1.59 ± 0.1 |
| CAUGAGCAAUAUUACGAGGA | -2.72 ± 0.23 | -2.62 ± 0.26 |
| CAGCAGCAAUAUUACGGUAC | -3.46 ± 0.14 | -2.26 ± 0.14 |
| CUUCAGCAAUAUUACGGCGC | -3.07 ± 0.13 | -3.29 ± 0.19 |
| AAGAAGCAAUAUUACGAGAC | -4.15 ± 0.29 | -2.85 ± 0.25 |
| CAGGAGCAAUAUUACGGCCG | -0.398 ± 0.09 | 0.0497 ± 0.12 |
| ACGUAGCAAUAUUACGGUUC | -3.18 ± 0.17 | -2.49 ± 0.31 |
| CAAUAGCAAUAUUACGCAUC | – | -2.7 ± 0.35 |
| GCAUAGCAAUAUUACGCUGA | -2.69 ± 0.24 | -1.06 ± 0.14 |
| CCCAAGCAAUAUUACGGGUC | -3.19 ± 0.13 | -3.14 ± 0.19 |
| ACCGAGCAAUAUUACGAAUC | -4.8 ± 0.42 | -2.61 ± 0.32 |
| CCGAAGCAAUAUUACGGAGU | -1.88 ± 0.16 | -2.98 ± 0.25 |
| GCGAAGCAAUAUUACGAUAU | -2.52 ± 0.13 | -1.22 ± 0.12 |
| AGUCAGCAAUAUUACGCGUG | -1.28 ± 0.097 | -0.66 ± 0.11 |

| Sequence | self-splicing fitness (ln) (30 °C) | self-splicing fitness (ln) (37 °C) |
| --- | --- | --- |
| AUCCAGCAAUAUUACGAUUA | -1.19 ± 0.094 | -0.911 ± 0.1 |
| UGUUAGCAAUAUUACGUAUC | – | -0.937 ± 0.26 |
| AAGAAGCAAUAUUACGUGAC | -3.34 ± 0.15 | -1.67 ± 0.11 |
| CGCUAGCAAUAUUACGUUUA | -3.37 ± 0.23 | -2.56 ± 0.18 |
| GAAAAGCAAUAUUACGCAAU | -2.28 ± 0.12 | -1.41 ± 0.17 |
| AGCAAGCAAUAUUACGUGAA | -2.21 ± 0.068 | -1.95 ± 0.11 |
| CCCUAGCAAUAUUACGUUGC | -3.75 ± 0.29 | -1.82 ± 0.18 |
| GUGCAGCAAUAUUACGGAAU | -2.01 ± 0.073 | -0.012 ± 0.087 |
| UAUUAGCAAUAUUACGAAAU | -2.46 ± 0.35 | -1.53 ± 0.43 |
| UCGUAGCAAUAUUACGCACA | -2.52 ± 0.21 | -1.7 ± 0.2 |
| UCAGAGCAAUAUUACGAAUA | -2.84 ± 0.32 | -2.14 ± 0.38 |
| GUGCAGCAAUAUUACGGAAC | -2.17 ± 0.23 | -1.12 ± 0.33 |
| AAGAAGCAAUAUUACGCCGC | -2.91 ± 0.25 | -2.63 ± 0.26 |
| UCCUAGCAAUAUUACGCGAA | -2.24 ± 0.22 | -1.67 ± 0.17 |
| CGGAAGCAAUAUUACGAAGA | -3.45 ± 0.4 | -3.08 ± 0.47 |
| CUCGAGCAAUAUUACGAGGU | -3.53 ± 0.24 | -2.58 ± 0.21 |
| CAUAAGCAAUAUUACGGAAA | – | -0.782 ± 0.37 |
| GUAGAGCAAUAUUACGGCCG | -0.867 ± 0.16 | 0.266 ± 0.21 |
| GGACAGCAAUAUUACGGUAC | -0.625 ± 0.11 | -0.234 ± 0.13 |
| GUAGAGCAAUAUUACGCAUU | -2.45 ± 0.18 | -0.619 ± 0.25 |
| CCCGAGCAAUAUUACGUUUU | -4.01 ± 0.33 | -2.01 ± 0.23 |
| UCUUAGCAAUAUUACGAAGA | -3.02 ± 0.49 | -2.64 ± 0.38 |
| UUGAAGCAAUAUUACGUUUA | -1.08 ± 0.062 | -0.682 ± 0.084 |
| GUACAGCAAUAUUACGGAUU | -2.88 ± 0.11 | -0.823 ± 0.084 |
